A protein production outcome set (Wang et al. 2014)

Experiment: label from the status in PepcDB records

Row | Sequence | protein production
1 | MTRMKMFKLWMVVMLLGLLPIVSEAQEEINNAINVQLEYLKKYPKDKEALRKVSFLYLNKADYDQAIFYGRQLFELGYNERDYNGAVIYSHICLGQAHMMKGNVKEAYSHLGQARLIGESNKNDSALCSVYNGLGLYASNVQKDYYRSLTYFFKGVEAARRCHYDRLYSILLSNIAGIYYLKNDSTGLKYALECYELGHERKDPYLIYSGSTNTAYMYYLKSDYNTALKYIQEAEFTMVQNDFYDQSNVYNLYGYILHKLNKDDEALVFFRKALDLKEQGNISSVMNSYLGYAEILMEHHQYDRAVRMLKAGIELSYQQANAIYRSDLLKALSRCYEEDGMLVEALKYHKLYQLETDSLYNAEKERAVGEIRAKYDMERQENEIKQNRLELLEKENKMQLLIAGFICIFIAASLLYYLYYRKNKLYLTIVKQNQDAIRREQQLQNKIDEQFAEIGRQSALLQEYLTDSTKTSLPQPEKYASSSLTDEKKQDLFLRLETLLWEEKVFTDNLLTKEKVAEMLGTNRTYLSQIINEQTKQTFTQFVNGFRTKEAVRLLSDPDNQTPLKAISAELGFNSMTTFYSQFQAATGMTPAQYRNKVQELHKNR | failed
2 | MSLAKPIEAHTVSPVNPNAQQTTKTVMNWLAHLPNRTENRVLSGAFGGYSHDTFSMAEADRIRSATGQSPAIYGCDYARGWLETANIEDSIDVSCNGDLMSYWKNGGIPQISLHLANPAFQSGHFKTPITNDQYKKILDSSTVEGKRLNAMLSKIADGLQELENQGVPVLFRPLHEMNGEWFWWGLTSYNQKDNERISLYKQLYKKIYHYMTDTRGLDHLIWVYSPDANRDFKTDFYPGASYVDIVGLDAYFQDAYSINGYDQLTALNKPFAFTEVGPQTANGSFDYSLFINAIKQKYPKTIYFLAWNDEWSAAVNKGASALYHDSWTLNKGEIWNGDSLTPIVEEGHHHHHH | not failed
3 | MILNVAGPLGNPAPMEKFGKILAIGAYVGIAEVYPIAKAWQEIGNDVTTLHVTFEPMVILKDYFEKAVSRHIVEPVKIDQEKSFQENTKNVTKALTAKVKELLDNENWDLVFMVGPPGDQKAVFEVVKKYGIPMKVDLHPIMLEHHHHHH | not failed
4 | MPTPIHVLPPHVARLIAAGEVVSRPLDVVRELVENALDAGASRIEIEVDGGGLERVQVRDNGSGIAAQSVPLAPARHATSKLTAGPETGSLSVTTLGFRGEALWAAAQAGELELTTRPAAQVGAARLRAQGDAVEVSRTSAPAGTTVTVSQLFARLPARLRTQASAAAEVRDITALLGRYVLHHSALHWRLTVDGDPRLTHAPADHRGAVATVYGPLSANRVLTLDTPGVRGVVSRPELTRARRDRMHFAVNGRPIVAPPELERAVIDAYAELLPAGTAPLCVLDLTVAPEDYDPNIHPAKQVVALADLPAVALRVRDAVAGALAGHPLVRAAPALIAPPEPHPAPTAGNFPDLTLLGVYQELYLLAQGEGDLWVVDAHAAHERALYERLGRELGTAAPLELPTPELLHLTPEQTARLHERGAELRGWGLTIEDFGAGLARLRTLPAALAALPVPRLHEVVVETALSGGPDPRREVLARLACLPALKAGMLDAERGALVLAALRECEQPWACPHGRPTVLRLSERDLAHAFGRRGVRDVARGRDSVV | failed
5 | MRWLLLLLLLAACRAQGLPEPYATLERGGKEALRQVALEAQGYAGLLAGWLLVGEEDLPLAERAEYAWRYALFLEEVRAFEPGWEAEAAWRVAAPLLEAAEDARAFSAWARLLPEEEAVQALLRLGQGERLWEALFRGRAYEPLLKALPEGERPDLRAQALYRLGRYEEALPHYRAWAEADPRGYLGLGYALWRLGRREEALQAFARYDHPESRLAQGRLLEGMGRVEEALARYLASTPEGLWRATALLERLGRKEEALGVYLRLAQGESPYADDAALRAYLLAGELGNGEARQEAYARLEGGLGLLVGKRPSPPPQALEAPPAPLTPLVEALVRAGKAAWARGEVRYALWRRPKDWPALVPLLYRLGAYREGIRAAWPTALAYPRAYREWVEGYAGKEGLDPDLLFALLHVESRFDPKAVSPTGALGLAQFLRSTWADVARMLGEPPADPFDPESAIRYAARYLRWLMERCAAFSGVERLACAVTAYNGGIGYTLRGIAREGGLYAFLRFQERDEPREYLAKVLSAYAAYKAIP | failed
6 | LADVEARARIAIDAAGMGTWDLRPQEGLLLWDDRCKTLFGVPTSTEMSLEVFYAGIYPDDLPLVREAVEHAMRPESDGHYRVEFRIAQPNGLEPRWLLSSGQSQFVDDQCVRFSGVLQDIHAQRQATQALRQLNEMLGER | not failed
7 | MKWRYSPKTSNYCFIVGGFFLFLPILMYGWGHFRRPPRSENQQELFRGIVYQRLIESKPRPLIIHIVTIDLNTPGIKPFITPDIENLSKNVGVGKQAIIDNETKARTTSEFVAEFQVKLAINGSYFYPFKEVTPWHYYPHSGDTTKVLGQTISNGKIYANKKSSWYVLCFDNNNQAQIPGGEECPKNTIQGLAGDDVLVFQGKPKINIYANSSADKPYSRVVAAIDKTGKKLWLVLVDGKQPLYSEGFTKRELTQFIAKLGVYNAINLDGGGSTTLVVANPDKEGKPKILNAPTHTKILMRDRPVANHLGFYAD | failed
8 | MGHHHHHHSHMSNPIQAEVLKRVAEVFDQHVPFHNLLGLDIKRYDIDGVEVAINMKPELIGNIHQQILHGGVTATVLDVVGGLTAFAGLVASRDDWTIEELQQRLQTLGTIDMRVDYLRPGRGQIFTGTGSVIRAGNRVSVCRMELHNEQGTHIAFGTGTYMVG | not failed
9 | MEALDWLVIGVFFLALIGIIVWVVRQKQNDSADYFLGGRDATWLAIGASIFASNIGSEHLIGLAGAGASSGMAMAHWEIQGWMILILGWVFVPFYSRSMVYTMPEFLERRYNPQSRTILSVISLVSYVLTKVAVTVYAGGLVFQQVFGIKELWGIDFFWIAAIGLVVLTALYTIFGGMKSVLYTSVLQTPILLLGSLIILVLGFKELGGWDEMMRVCGAVTVNDYGDTMTNLIRSNDDANFPWLGALIGSAIIGFWYWCTDQFIVQRVLSGKNEKEARRGTIFGAYLKLLPVFLFLIPGMIAFALHQKYIGAGGEGFLPMLANGTANADAAFPTLVAKLLPAGVKGLVVCGILAALMSSLASLFNSSAMLFTIDFYKRFRPETPEKKLVGIGQIATVVIVILGILWIPIMRSVGDVLYTYLQDVQSVLAPGIAAAFLLGICWKRTSAQGGMWGLIAGMIIGLTRLGAKVYYSNAGEVADSTFKYLFYDMNWLFFCGWMFLFCIIVVIVVSLATEAPTAEKIQGLVFGTATKEQKAATRASWDHWDIIHTVIILAITGAFYWYFW | failed
10 | MDMLKKRKLDENGIAMLHDGVSGSVSFRLVPQDARKITELFFADQLLDILQEAIVRHPDVLFFFF | failed
11 | MALLLFFLFIALLGFGILKINNRSILGGITLASGTLLSLVTLLFIGLDKIYLHFKNGDLITLAIAYLLIPAVFIGICLYFIFNSRTMQTKEGKSVTAKLSAGLGLNLLIALPAFLYLLSVGTAQIPYVLFLFLLFLLLMDLLLTFLFAAYVLYSWMYQMIPLKKAVDYIIVLGSGIRSEEVPPLLKSRLDKGIEYYEKNPTAKFVVSGGQGPDEPVAEAFAMKKYLLSQNIPAEAILMEDQSTTTYENMLFSKAIIQADWQKMPSDSKQPSVIFSTNNYHVLRGAMYAHRVGLKAEGVGAPTALYFLPTALIREYIALLVHDKRIVLFVFLLVTLLLGISILPI | failed
12 | MLDFNIEGLIPKNMEKRGELVLNEYLKEIEDVFNHRKIPENGIDDEKIKLFLKFLSMMDTDKDPKSVRIGEREARTYSKIHEELSSGFCHGIGRSGNLVDPQPKASGASIMYALTNKILESFFKQLGLNVHAIATPISTGMSISLCLSAARKKYGSNVVIYPYASHKSPIKAVSFVGMNMRLVETVLDGDRVYVPVEDIENAIKKEIELGNRPCVLSTLTFFPPRNSDDIVEIAKICENYDIPHIINGAYAIQNNYYLEKLKKAFKYRVDAVVSSSDKNLLTPIGGGLVYSTDAEFIKEISLSYPGRASATPVVNTLVSLLSMGSKNYLELVKNQKNSKKLLDELLNDLSKKTGGKFLDVESPIASCISVNSDPVEIAAKLYNLRVTGPRGIKKTDHFGNCYLGTYTHDYIVMNAAIGVRTEDIVNSVSKLEKILL | failed
13 | MENHSHANTHTDTRTDDKSTKIVRLLGLIGGALIALVIYYALNSQMPHIVEEIPKLSSLNYKAMPVVAGVAVLMGIWWMTEAIDLPATALLPLVLFSVFSVDQFASVSSSYASPIIFLFMGGFILALSMQKWNLHTRIALSIILLVGTSPRRLILGFMMATGFLSMWVSNTATAVMMLPVGMSVLQLVAKLVGKEDASNSWHQKEEITKAHGGIMSNIVHKGKDITQVIQEKTTIYRTNFSICLMLGIAYAASIGSLGTLIGTPPNALLAGYMKTAFNIEIDFAQWMVFGTPLAFIMLILAWLLLTYVIFPLKIKEIPGGKEVIRVELKKLGRLSQAEISVGIIFILASLGWIFLGVMLKSWGVKIDKIDSVIAMGVSALLFILPANHQGDRLIDWGVAKKLPWDVLLLFGGGLALSAQFSKTGLSLWIGHLVSGFSHLPILFIIVMVTLMVIFLTEITSNTATAAAFLPVIGGVAMGMGYENHQSLLLTIPVALSATCAFMLPVVTPPNAIAYGSGYVKITDMIKAGLWLNLVGVVLISTFSYFLVSLIFN | failed
14 | MESVSCSAAAVRTGDMESQRDLSLVPERLQRREQERQLEVERRKQKRQNQEVEKENSHFFVATFARERAAVEELLERAESVERLEEAASRLQGLQKLINDSVFFLAAYDLRQGQEALARLQAALAERRRGLQPKKRFAFKTRGKDAASSTKVDAAPGIPPAVESIQDSPLPKKAEGDLGPSWVCGFSNLESQVLEKRASELHQRDVLLTELSNCTVRLYGNPNTLRLTKAHSCKLLCGPVSTSVFLEDCSDCVLAVACQQLRIHSTKDTRIFLQVTSRAIVEDCSGIQFAPYTWSYPEIDKDFESSGLDRSKNNWNDVDDFNWLARDMASPNWSILPEEERNIQWD | not failed
15 | MKTVNIGLIGAGRIGQLHASNIISSPYMELKAVSDVQLDHLKGTEIERSVEIMTTNPDELFSNRDIDAIFICSSTDTHAAFIKAAALAGKHIFCEKPISFHVTETKGALNIVNEAGVKFQVGFNRRYDKHFRRVQECVQAGAIGAPHIIRVSSRDPEAPPLSYVERSGGMFMDMTIHDFDMVRYLSGSEVTEVSVKAANLVDSRIGEVGDVDTAIITLMLENGAIAVIDNSRQAAYGYDQRVEVFGSLGSVSADNERKTNVQISTKDTVTLDLPKHFFLDRYEQAYKDEVAEFATAILEDQPLRCTGEDGYKAELLALAAKQSWLENRPVAVKDVEVLEEHAKSE | failed
16 | MDFRALALSLLLWLVPLWACANDQLDKLTQQVYQYPTKALAQITELEKQQQTDNTSNIDKLRLSILKCQNLLQLGENEAAINLAQMGEAHAKQLKLDQARPYFFNCQADAYLNYDNIQDALPLLDSAITLARRYQQPQALIDALRLRGQLDTNTDNFSSAIEDLRIAIDIYPDIHTQTQNWIWPPEAVGSPHNS | failed
17 | MMNTKVALKQLMATHFITVDVPCPECGGAMTAWKEPTPDTPPRCPPVCMECGYRSVKKKEATTAKNLYESSLIKKAKDYFLNGSVLTDRKSLHKKISNYYPSNQESTKAKNISMEFCEKTLLGEIHHLILTGGVGVGKSHLAIGCLNEILVKSNYSKKVLFVSYRELLEQLKFAMNDEEARKAITGVAMSEIKAADVVVLDDIGAELGDFNKRDEKGNLILSRASNFDIDTLTGILESRIDKPTIITSNLKSKEIKYCYGERIVSRMATHSNGFMHRFTNTKDYRLKTALEHHHHHH | not failed
